Measured values: patent US20250154261A1 (published 2025)
Where two headings read alike, the source gives them in different places.

Experiments:
Assay in all cases: SPR captured Fab
Human CD33 S128N = Human CD33 S128N (human, UniProt P20138 18-259)
Human CD33 R69G = Human CD33 R69G (human, UniProt P20138 18-259)
V domain of human CD33 [1] = target: T1, V domain of human CD33 (human, UniProt P20138 18-139, limits assumed)
T1 construct: Whole entry named; also called Human CD33 V domain
Protocol: (§1) Kinetics and affinity of a series of Fab fragments of anti-CD33 antibodies with different CD33 variants (human CD33 ECD, cyno CD33 ECD, V-domain of human CD33, C-domain or human CD33 and selected CD33 SNPs) were assessed by surface plasmon resonance using Biacore 8K instrument (GE Healthcare). Anti-Fab antibody was immobilized on a CM5 chip using standard amine coupling chemistry. CD33 FABs were captured on the anti-Fab chip at a density of ˜100 RU. Solutions containing different concentrations of soluble monomeric CD33 or its domains were injected over the captured FABs and control surfaces at 30 μl/min at 37° C. Surfaces were regenerated between cycles by quick injection of 10 mM glycine, pH 1.8. To obtain kinetic rate constants double-referenced data were fit to a 1:1 interaction model using Biacore 8K Evaluation software (GE Healthcare). The equilibrium binding constant KD was determined by the ratio of binding rate constants kd/kₐ.

V domain of human CD33 [2] = target: T1, V domain of human CD33; remark: listed apart in the source
Protocol: as §1

B1: ADI-11826 Fab (Fab, V domains shown)
VH: EVQLVESGGGLVQPGGSLRLSCAASGFTFPGYWMSWVRQAPGKGLEWVANINQDGSEVYYVDSVKGRFTISRDNAKNSLYLQMNSLRAEDTAVYYCAREANYYGNVGDDYWGQGTLVTVSS
VL: DIQMTQSPSSLSASVGDRVTITCRASQSIYNYLNWYQQKPGKAPKLLIYAASSTQSGVPSRFSGSGSGTDFTLTISSLQPEDFATYYCQQAFHVPITFGGGTKVEIK
notes: Fab fragment; also called Ab26
Work on B1 yielded a Kd (Human CD33 S128N) of 2.65 nM, a koff (Human CD33 S128N) of 0.00574 s⁻¹ and a kon (Human CD33 S128N) of 2.17e+06 M⁻¹ s⁻¹. The Kd (Human CD33 R69G) was 3.83 nM, the koff (Human CD33 R69G) was 0.00723 s⁻¹ and the kon (Human CD33 R69G) was 1.89e+06 M⁻¹ s⁻¹. For the same binder, the koff (V domain of human CD33 [1]) was 0.00225 s⁻¹ and the koff (V domain of human CD33 [2]) was 0.00225 s⁻¹.
